According to patent publication US20250352667A1:

Tests used:
[1] = target: KEAP1 (wild-type full-length), His-tagged (human) (UniProt Q14145); test: AlphaScreen; 1228.8 nM FLAG-NRF2, 150 nM His-KEAP1; Rep 2; control for I86V
[2] = target: KEAP1 (wild-type full-length), His-tagged (human) (UniProt Q14145); test: AlphaScreen; NRF2 wt isoform 1 19.2 nM, KEAP1 150 nM; set as the 100 % reference for Q75R
[3] = target: KEAP1 (wild-type full-length), His-tagged (human) (UniProt Q14145); test: AlphaScreen; 19.2 nM FLAG-NRF2, 150 nM His-KEAP1; signal against NRF2 only; control for I86V
[4] = target: KEAP1 (wild-type full-length), His-tagged (human) (UniProt Q14145); test: AlphaScreen; 2.4 nM FLAG-NRF2, 150 nM His-KEAP1; Rep 3; control for I86V
[5] = target: KEAP1 (wild-type full-length), His-tagged (human) (UniProt Q14145); test: AlphaScreen; 307.2 nM FLAG-NRF2, 150 nM His-KEAP1; signal against NRF2 only; control for I86V
[6] = target: KEAP1 (wild-type full-length), His-tagged (human) (UniProt Q14145); test: AlphaScreen; 9.6 nM FLAG-NRF2, 150 nM His-KEAP1; Rep 1; control for I86V
[7] = target: KEAP1 (wild-type full-length), His-tagged (human) (UniProt Q14145); test: AlphaScreen; FLAG-NRF2 wt isoform 1 38.4 nM, His-KEAP1 150 nM; Repeat 2; positive control for Q75R
[8] = target: KEAP1 (wild-type full-length), His-tagged (human) (UniProt Q14145); test: AlphaScreen; 614.4 nM FLAG-NRF2, 150 nM His-KEAP1; Rep 1; control for I86V
[9] = target: KEAP1 (wild-type full-length), His-tagged (human) (UniProt Q14145); test: AlphaScreen; 2.4 nM FLAG-NRF2, 150 nM His-KEAP1; signal against NRF2 only; control for I86V
[10] = target: KEAP1 (wild-type full-length), His-tagged (human) (UniProt Q14145); test: AlphaScreen; 9.6 nM FLAG-NRF2, 150 nM His-KEAP1; signal against NRF2 only; control for I86V
[11] = target: KEAP1 (wild-type full-length), His-tagged (human) (UniProt Q14145); test: AlphaScreen; 9.6 nM FLAG-NRF2, 150 nM His-KEAP1; Rep 2; control for I28V
[12] = target: KEAP1 (wild-type full-length), His-tagged (human) (UniProt Q14145); test: AlphaScreen; 1228.8 nM FLAG-NRF2, 150 nM His-KEAP1; signal against NRF2 only; control for I86V
[13] = target: KEAP1 (wild-type full-length), His-tagged (human) (UniProt Q14145); test: AlphaScreen; NRF2 I86V 4.8 nM, KEAP1 150 nM; signal against NRF2-only control
[14] = target: KEAP1 (wild-type full-length), His-tagged (human) (UniProt Q14145); test: AlphaScreen; NRF2 I86V 76.8 nM, KEAP1 150 nM; signal against NRF2-only control
[15] = target: KEAP1 (wild-type full-length), His-tagged (human) (UniProt Q14145); test: AlphaScreen; FLAG-NRF2 I86V 153.6 nM, His-KEAP1 150 nM; Rep 2
[16] = target: KEAP1 (wild-type full-length), His-tagged (human) (UniProt Q14145); test: AlphaScreen; FLAG-NRF2 I86V 9.6 nM, His-KEAP1 150 nM; Rep 2
[17] = target: KEAP1 (wild-type full-length), His-tagged (human) (UniProt Q14145); test: AlphaScreen; NRF2 I86V 9.6 nM, KEAP1 150 nM; signal against NRF2-only control
[18] = target: KEAP1 (wild-type full-length), His-tagged (human) (UniProt Q14145); test: AlphaScreen; 153.6 nM FLAG-NRF2, 150 nM His-KEAP1; Rep 2
[19] = target: KEAP1 (wild-type full-length), His-tagged (human) (UniProt Q14145); test: AlphaScreen; 2.4 nM FLAG-NRF2, 150 nM His-KEAP1; Rep 2
[20] = target: KEAP1 (wild-type full-length), His-tagged (human) (UniProt Q14145); test: AlphaScreen; 38.4 nM FLAG-NRF2, 150 nM His-KEAP1; against wild-type NRF2 isoform 1 = 100%
[21] = target: KEAP1 (wild-type full-length), His-tagged (human) (UniProt Q14145); test: AlphaScreen; 38.4 nM FLAG-NRF2, 150 nM His-KEAP1 (same value as in Table 27)
[22] = target: KEAP1 (wild-type full-length), His-tagged (human) (UniProt Q14145); test: AlphaScreen; over 9.6, 19.2 and 38.4 nM NRF2; 150 nM His-KEAP1
[23] = target: KEAP1 (wild-type full-length), His-tagged (human) (UniProt Q14145); test: AlphaScreen; FLAG-NRF2 Q75R 9.6 nM, His-KEAP1 150 nM; Rep 1
[24] = target: KEAP1 (wild-type full-length), His-tagged (human) (UniProt Q14145); test: AlphaScreen; FLAG-NRF2 Q75R 9.6 nM, His-KEAP1 150 nM; Repeat 2
[25] = target: KEAP1 (wild-type full-length), His-tagged (human) (UniProt Q14145); test: AlphaScreen; NRF2 Q75R 307.2 nM, KEAP1 150 nM; signal against NRF2-only control
[26] = target: KEAP1 (wild-type full-length), His-tagged (human) (UniProt Q14145); test: AlphaScreen; FLAG-NRF2 Q75R 38.4 nM, His-KEAP1 150 nM; Repeat 2
[27] = target: KEAP1 (wild-type full-length), His-tagged (human) (UniProt Q14145); test: AlphaScreen; FLAG-NRF2 Q75R 19.2 nM, His-KEAP1 150 nM; Rep 2

Sequence of KEAP1 (wild-type full-length), His-tagged (human) (Q14145 2-624 limits assumed): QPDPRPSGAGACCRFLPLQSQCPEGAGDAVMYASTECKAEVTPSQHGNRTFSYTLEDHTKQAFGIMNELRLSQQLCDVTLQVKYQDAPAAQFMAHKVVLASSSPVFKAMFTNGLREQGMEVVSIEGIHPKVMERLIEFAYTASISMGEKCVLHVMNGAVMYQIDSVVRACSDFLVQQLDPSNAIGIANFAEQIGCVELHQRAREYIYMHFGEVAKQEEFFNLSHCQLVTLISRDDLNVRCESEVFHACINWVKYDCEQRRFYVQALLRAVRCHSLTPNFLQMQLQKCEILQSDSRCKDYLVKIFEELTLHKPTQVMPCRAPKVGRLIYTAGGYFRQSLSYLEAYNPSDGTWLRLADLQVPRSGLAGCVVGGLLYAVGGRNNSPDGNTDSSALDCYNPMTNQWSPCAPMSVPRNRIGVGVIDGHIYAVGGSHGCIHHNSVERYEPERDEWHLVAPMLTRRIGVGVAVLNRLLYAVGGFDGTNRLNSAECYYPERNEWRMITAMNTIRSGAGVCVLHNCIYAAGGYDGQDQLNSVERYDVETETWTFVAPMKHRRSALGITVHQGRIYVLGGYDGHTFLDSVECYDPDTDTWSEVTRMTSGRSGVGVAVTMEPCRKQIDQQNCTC

B1: NRF2 isoform 1 (wild-type full-length), FLAG-tagged (protein)
chain: MMDLELPPPGLPSQQDMDLIDILWRQDIDLGVSREVFDFSQRRKEYELEKQKKLEKERQEQLQKEQEKAFFAQLQLDEETGEFLPIQPAQHIQSETSGSANYSQVAHIPKSDALYFDDCMQLLAQTFPFVDDNEVSSATFQSLVPDIPGHIESPVFIATNQAQSPETSVAQVAPVDLDGMQQDIEQVWEELLSIPELQCLNIENDKLVETTMVPSPEAKLTEVDNYHFYSSIPSMEKEVGNCSPHFLNAFEDSFSSILSTEDPNQLTVNSLNSDATVNTDFGDEFYSAFIAEPSISNSMPSPATLSHSLSELLNGPIDVSDLSLCKAFNQNHPESTAEFNDSDSGISLNTSPSVASPEHSVESSSYGDTLLGLSDSEVEELDSAPGSVKQNGPKTPVHSSGDMVQPLSPSQGQSTHVHDAQCENTPEKELPVSPGHRKTPFTKDKHSSRLEAHLTRDELRAKALHIPFPVEKIINLPVVDFNEMMSKEQFNEAQLALIRDIRRRGKNKVAAQNCRKRKLENIVELEQDLDHLKDEKEKLLKEKGENDKSLHLLKKQLSTLYLEVFSMLRDEDGKPYSPSEYSLQQTRDGNVFLVPKSKKPDVKKN
A-counts [1]: 2770 A-counts
Binding Percentage [2]: 100%
S/N [3]: 4.1
A-counts [4]: 1100 A-counts
S/N [5]: 1.5
A-counts [6]: 2640 A-counts
A-counts (NRF2 plus KEAP1) [7]: 1450 A-counts
A-counts [8]: 2660 A-counts
S/N [9]: 1.7
S/N [10]: 3.6
A-counts [11]: 1640 A-counts
S/N [12]: 1

B2: NRF2 isoform 1 (I86V full-length), FLAG-tagged (protein)
chain: MMDLELPPPGLPSQQDMDLIDILWRQDIDLGVSREVFDFSQRRKEYELEKQKKLEKERQEQLQKEQEKAFFAQLQLDEETGEFLPVQPAQHIQSETSGSANYSQVAHIPKSDALYFDDCMQLLAQTFPFVDDNEVSSATFQSLVPDIPGHIESPVFIATNQAQSPETSVAQVAPVDLDGMQQDIEQVWEELLSIPELQCLNIENDKLVETTMVPSPEAKLTEVDNYHFYSSIPSMEKEVGNCSPHFLNAFEDSFSSILSTEDPNQLTVNSLNSDATVNTDFGDEFYSAFIAEPSISNSMPSPATLSHSLSELLNGPIDVSDLSLCKAFNQNHPESTAEFNDSDSGISLNTSPSVASPEHSVESSSYGDTLLGLSDSEVEELDSAPGSVKQNGPKTPVHSSGDMVQPLSPSQGQSTHVHDAQCENTPEKELPVSPGHRKTPFTKDKHSSRLEAHLTRDELRAKALHIPFPVEKIINLPVVDFNEMMSKEQFNEAQLALIRDIRRRGKNKVAAQNCRKRKLENIVELEQDLDHLKDEKEKLLKEKGENDKSLHLLKKQLSTLYLEVFSMLRDEDGKPYSPSEYSLQQTRDGNVFLVPKSKKPDVKKN
S/N [13]: 2.9
S/N [14]: 2.3
A-counts (NRF2 plus KEAP1) [15]: 2580 A-counts
A-counts (NRF2 plus KEAP1) [16]: 2610 A-counts
S/N [17]: 3.6

B3: NRF2 isoform 1 (I28V full-length), FLAG-tagged (protein)
chain: MMDLELPPPGLPSQQDMDLIDILWRQDVDLGVSREVFDFSQRRKEYELEKQKKLEKERQEQLQKEQEKAFFAQLQLDEETGEFLPIQPAQHIQSETSGSANYSQVAHIPKSDALYFDDCMQLLAQTFPFVDDNEVSSATFQSLVPDIPGHIESPVFIATNQAQSPETSVAQVAPVDLDGMQQDIEQVWEELLSIPELQCLNIENDKLVETTMVPSPEAKLTEVDNYHFYSSIPSMEKEVGNCSPHFLNAFEDSFSSILSTEDPNQLTVNSLNSDATVNTDFGDEFYSAFIAEPSISNSMPSPATLSHSLSELLNGPIDVSDLSLCKAFNQNHPESTAEFNDSDSGISLNTSPSVASPEHSVESSSYGDTLLGLSDSEVEELDSAPGSVKQNGPKTPVHSSGDMVQPLSPSQGQSTHVHDAQCENTPEKELPVSPGHRKTPFTKDKHSSRLEAHLTRDELRAKALHIPFPVEKIINLPVVDFNEMMSKEQFNEAQLALIRDIRRRGKNKVAAQNCRKRKLENIVELEQDLDHLKDEKEKLLKEKGENDKSLHLLKKQLSTLYLEVFSMLRDEDGKPYSPSEYSLQQTRDGNVFLVPKSKKPDVKKN
A-counts [18]: 1440 A-counts
A-counts [19]: 696 A-counts
Binding Percentage (%) [20]: 63.5%
S/N [21]: 2.7
Standard Deviation (of binding percentage) [22]: 7.2%

B4: NRF2 isoform 1 (Q75R full-length), FLAG-tagged (protein)
chain: MMDLELPPPGLPSQQDMDLIDILWRQDIDLGVSREVFDFSQRRKEYELEKQKKLEKERQEQLQKEQEKAFFAQLRLDEETGEFLPIQPAQHIQSETSGSANYSQVAHIPKSDALYFDDCMQLLAQTFPFVDDNEVSSATFQSLVPDIPGHIESPVFIATNQAQSPETSVAQVAPVDLDGMQQDIEQVWEELLSIPELQCLNIENDKLVETTMVPSPEAKLTEVDNYHFYSSIPSMEKEVGNCSPHFLNAFEDSFSSILSTEDPNQLTVNSLNSDATVNTDFGDEFYSAFIAEPSISNSMPSPATLSHSLSELLNGPIDVSDLSLCKAFNQNHPESTAEFNDSDSGISLNTSPSVASPEHSVESSSYGDTLLGLSDSEVEELDSAPGSVKQNGPKTPVHSSGDMVQPLSPSQGQSTHVHDAQCENTPEKELPVSPGHRKTPFTKDKHSSRLEAHLTRDELRAKALHIPFPVEKIINLPVVDFNEMMSKEQFNEAQLALIRDIRRRGKNKVAAQNCRKRKLENIVELEQDLDHLKDEKEKLLKEKGENDKSLHLLKKQLSTLYLEVFSMLRDEDGKPYSPSEYSLQQTRDGNVFLVPKSKKPDVKKN
A-counts (NRF2 plus KEAP1) [23]: 1180 A-counts
A-counts (NRF2 plus KEAP1) [24]: 1090 A-counts
S/N [25]: 1
A-counts (NRF2 plus KEAP1) [26]: 1280 A-counts
A-counts (NRF2 plus KEAP1) [27]: 1280 A-counts
